Bridge positions count the residues as written; N and C are the ends. Square brackets hold non-standard residues; d marks the D form. R8 = C=CCCCCCC[C@@](C)(N)C(=O)O; S5 = C=CCCC[C@](C)(N)C(=O)O
Key:
[1] = target: recombinant human APC/C (Strep-tagged APC4), expressed in SF9 cells (human) (UniProt Q9NYG5); experiment: cell-based or functional assay
[2] = target: recombinant human APC/C (Strep-tagged APC4), expressed in SF9 cells (human) (UniProt Q9NYG5); experiment: inhibitory constant calculated with a model for non-competitive inhibition (Prism 6.0) from the in vitro APC/C ubiquitination assay (UBE2C, securin titration, with or without 3 µM G3-6)

recombinant human APC/C (Strep-tagged APC4), expressed in SF9 cells (human), sequence (Q9NYG5 whole entry, chain 1 of 2): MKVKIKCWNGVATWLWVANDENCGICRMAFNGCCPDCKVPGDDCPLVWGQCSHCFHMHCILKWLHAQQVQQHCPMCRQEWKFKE
recombinant human APC/C (Strep-tagged APC4), expressed in SF9 cells (human), sequence (Q9UJX5 whole entry, chain 2 of 2, further chain): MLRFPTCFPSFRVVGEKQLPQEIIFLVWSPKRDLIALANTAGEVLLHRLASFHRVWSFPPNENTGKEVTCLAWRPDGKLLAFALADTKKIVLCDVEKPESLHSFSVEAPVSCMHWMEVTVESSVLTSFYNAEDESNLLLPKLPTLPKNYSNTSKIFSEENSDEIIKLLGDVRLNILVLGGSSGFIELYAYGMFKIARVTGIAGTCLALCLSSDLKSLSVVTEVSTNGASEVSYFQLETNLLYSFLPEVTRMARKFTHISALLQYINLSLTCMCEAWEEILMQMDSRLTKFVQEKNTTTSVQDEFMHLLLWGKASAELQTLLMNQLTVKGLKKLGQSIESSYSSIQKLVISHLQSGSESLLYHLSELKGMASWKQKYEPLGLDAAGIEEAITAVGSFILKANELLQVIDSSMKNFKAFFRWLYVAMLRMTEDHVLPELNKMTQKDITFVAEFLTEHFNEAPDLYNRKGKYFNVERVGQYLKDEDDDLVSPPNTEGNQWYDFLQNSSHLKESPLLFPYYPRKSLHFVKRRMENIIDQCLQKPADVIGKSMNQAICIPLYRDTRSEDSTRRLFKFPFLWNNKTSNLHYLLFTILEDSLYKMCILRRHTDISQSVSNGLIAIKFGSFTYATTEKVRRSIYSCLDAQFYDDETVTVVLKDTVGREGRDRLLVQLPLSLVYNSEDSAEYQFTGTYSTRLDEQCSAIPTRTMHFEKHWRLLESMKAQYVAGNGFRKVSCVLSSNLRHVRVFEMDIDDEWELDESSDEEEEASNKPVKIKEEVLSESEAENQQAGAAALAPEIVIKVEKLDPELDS

B1: G3-6, Ac-cyclo(4,11)-EWWZIKEIQRXRRA-NH2 (peptide)
peptide: Ac-EWW[R8]IKEIQR[S5]RRA-NH2
modifications: staple 4-11
SMILES: CC[C@H](C)[C@@H]1NC(=O)[C@H](CCC(=O)O)NC(=O)[C@H](CCCCN)NC(=O)[C@H]([C@@H](C)CC)NC(=O)[C@](C)(NC(=O)[C@H](Cc2c[nH]c3ccccc23)NC(=O)[C@H](Cc2c[nH]c3ccccc23)NC(=O)[C@H](CCC(=O)O)NC(C)=O)CCCCCCC=CCCC[C@@](C)(C(=O)N[C@@H](CCCNC(=N)N)C(=O)N[C@@H](CCCNC(=N)N)C(=O)N[C@@H](C)C(N)=O)NC(=O)[C@H](CCCNC(=N)N)NC(=O)[C@H](CCC(N)=O)NC1=O
[1]
  IC50, in vitro APC/C ubiquitination assay (UBE2C, securin, methylated ubiquitin, 0.01-100 µM G3-6, 10 min): 1.96 µM
[2]
  Ki: 5 µM

Source: US20230391828A1, “REGULATORS OF CELL DIVISION” (TECHNISCHE UNIVERSITÄT DRESDEN, priority 2020, published 2023)
